# B1: CD97 EGF_(1,2,5) fragment, WT, without His-tag (SPR construct with TEV site) [human] / CD55 SCR1–4 domains (35–285), His-tagged [human] (parent)
# chain 1: QDSRGCARWCPQNSSCVNATACRCNPGFSSFSEIITTPTETCDDINECATPSKVSCGKFSDCWNTEGSYDCVCSPGYEPVSGAKTFKNESENTCQDVDECSSGQHQCDSSTVCFNTVGSYSCRCRPGWKPRHGIPNNQKDTVCED
# chain 2: DCGLPPDVPNAQPALEGRTSFPEDTVITYKCEESFVKIPGEKDSVICLKGSQWSDIEEFCNRSCEVPTRLNSASLKQPYITQNYFPVGTVVEYECRPGYRREPSLSPKLTCLQNLKWSTAVEFCKKKSCPNPGEIRNGQIDVPGGILFGATISFSCNTGYKLFGSTSSFCLISGSSVQWSDPLPECREIYCPAPPQIDNGIIQGERDHYGYRQSVTYACNKGFTMIGEHSIYCTVNNDEGEWSGPPPECRG
# Variants of: B1
# Assay: SPR
# Settings: with CD55 SCR1–4 domains (35–285), His-tagged CD55 immobilized on NTA chip, CD97(V137A) titrated at 0.2, 0.5, 1, 2, 5, 10, 20 µM
row,Variant,koff
1,chain 1 QDSRGCARWCPQNSSCVNATACRCNPGFSSFSEIITTPTETCDDINECATPSKVSCGKFSDCWNTEGSYDCVCSPGYEPVSGAKTFKNESENTCQDVDECSSGQHQCDSSTVCFNTAGSYSCRCRPGWKPRHGIPNNQKDTVCED [chain 1 V117A],1.63 10^-3 s-1

# Same assay, conditions: with CD55 SCR1–4 domains (35–285), His-tagged CD55 immobilized on NTA chip, CD97(V137A) titrated at 0.2, 0.5, 1, 2, 5, 10, 20 µM, parent: 546
row,Variant,kon [M⁻¹ s⁻¹]
1,chain 1 QDSRGCARWCPQNSSCVNATACRCNPGFSSFSEIITTPTETCDDINECATPSKVSCGKFSDCWNTEGSYDCVCSPGYEPVSGAKTFKNESENTCQDVDECSSGQHQCDSSTVCFNTAGSYSCRCRPGWKPRHGIPNNQKDTVCED [chain 1 V117A],64

# Same assay, conditions: with CD55 SCR1–4 domains (35–285), His-tagged CD55 immobilized on NTA chip, CD97(D81A) titrated at 0.2, 0.5, 1, 2, 5, 10, 20 µM
row,Variant,koff
1,chain 1 QDSRGCARWCPQNSSCVNATACRCNPGFSSFSEIITTPTETCDDINECATPSKVSCGKFSACWNTEGSYDCVCSPGYEPVSGAKTFKNESENTCQDVDECSSGQHQCDSSTVCFNTVGSYSCRCRPGWKPRHGIPNNQKDTVCED [chain 1 D61A],1.22 10^-3 s-1

# Same assay, conditions: with CD55 SCR1–4 domains (35–285), His-tagged CD55 immobilized on NTA chip, CD97(D81A) titrated at 0.2, 0.5, 1, 2, 5, 10, 20 µM, parent: 546
row,Variant,kon [M⁻¹ s⁻¹]
1,chain 1 QDSRGCARWCPQNSSCVNATACRCNPGFSSFSEIITTPTETCDDINECATPSKVSCGKFSACWNTEGSYDCVCSPGYEPVSGAKTFKNESENTCQDVDECSSGQHQCDSSTVCFNTVGSYSCRCRPGWKPRHGIPNNQKDTVCED [chain 1 D61A],20.2

# Same assay, conditions: with CD55 SCR1–4 domains (35–285), His-tagged CD55 immobilized on NTA chip, CD97(E86A) titrated at 0.2, 0.5, 1, 2, 5, 10, 20, 30 µM
row,Variant,koff
1,chain 1 QDSRGCARWCPQNSSCVNATACRCNPGFSSFSEIITTPTETCDDINECATPSKVSCGKFSDCWNTAGSYDCVCSPGYEPVSGAKTFKNESENTCQDVDECSSGQHQCDSSTVCFNTVGSYSCRCRPGWKPRHGIPNNQKDTVCED [chain 1 E66A],1.41 10^-3 s-1

# Same assay, conditions: with CD55 SCR1–4 domains (35–285), His-tagged CD55 immobilized on NTA chip, CD97(E86A) titrated at 0.2, 0.5, 1, 2, 5, 10, 20, 30 µM, parent: 546
row,Variant,kon [M⁻¹ s⁻¹]
1,chain 1 QDSRGCARWCPQNSSCVNATACRCNPGFSSFSEIITTPTETCDDINECATPSKVSCGKFSDCWNTAGSYDCVCSPGYEPVSGAKTFKNESENTCQDVDECSSGQHQCDSSTVCFNTVGSYSCRCRPGWKPRHGIPNNQKDTVCED [chain 1 E66A],80.1

# Same assay, conditions: with CD55 SCR1–4 domains (35–285), His-tagged CD55 immobilized on NTA chip, CD97(D63L) titrated at 0.2, 0.5, 1, 5, 10, 20 µM
row,Variant,koff
1,chain 1 QDSRGCARWCPQNSSCVNATACRCNPGFSSFSEIITTPTETCLDINECATPSKVSCGKFSDCWNTEGSYDCVCSPGYEPVSGAKTFKNESENTCQDVDECSSGQHQCDSSTVCFNTVGSYSCRCRPGWKPRHGIPNNQKDTVCED [chain 1 D43L],0.968 10^-3 s-1

# Same assay, conditions: with CD55 SCR1–4 domains (35–285), His-tagged CD55 immobilized on NTA chip, CD97(D63L) titrated at 0.2, 0.5, 1, 5, 10, 20 µM, parent: 546
row,Variant,kon [M⁻¹ s⁻¹]
1,chain 1 QDSRGCARWCPQNSSCVNATACRCNPGFSSFSEIITTPTETCLDINECATPSKVSCGKFSDCWNTEGSYDCVCSPGYEPVSGAKTFKNESENTCQDVDECSSGQHQCDSSTVCFNTVGSYSCRCRPGWKPRHGIPNNQKDTVCED [chain 1 D43L],11.2

# — article PMC8191316, “Structural basis for CD97 recognition of the decay-accelerating factor CD55 suggests mechanosensitive activation of adhesion GPCRs” (The Journal of Biological Chemistry, 2021)
